Experiments:
[1] = biological target: cynomolgus (cyno) MS4A6A (cynomolgus); assay: flow cytometry, hybridoma supernatant, HEK293 transfected with cyno MS4A6A over parental HEK293; Screen 1
[2] = biological target: cynomolgus (cyno) MS4A6A (cynomolgus); assay: flow cytometry, hybridoma supernatant, HEK293 transfected with cyno MS4A6A over parental HEK293; Screen 2

Chain of cynomolgus (cyno) MS4A6A (cynomolgus) (Q9H2W1 other isoform, or with tags, fused parts or gaps): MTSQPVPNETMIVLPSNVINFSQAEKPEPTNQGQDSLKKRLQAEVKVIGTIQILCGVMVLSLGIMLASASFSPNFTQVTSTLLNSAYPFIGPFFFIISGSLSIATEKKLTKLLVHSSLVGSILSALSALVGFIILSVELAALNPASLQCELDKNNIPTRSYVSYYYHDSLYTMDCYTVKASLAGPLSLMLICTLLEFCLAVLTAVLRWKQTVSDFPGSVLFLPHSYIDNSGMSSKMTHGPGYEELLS

B1: 6A-20 (antibody, V domains shown)
VH: EVQLQQSGPELVKPGASVKMSCKASGYTFTDYFMKWVKQSHGKSLEWIGDINPKNGDTFYNQKFKGKATLTVDKSSSTAYMQLNSLTSEDSAVYYCARPGYFDVWGAGTTVTVSS
VL: DIVMTQAAPSVPVTPGESVSISCRSSKSLLHSDGNTYLYWFLQRPGQSPQLLIYRMSNLAPGVPDRFSGSGSGTAFTLRISRVEAEDVGVYYCMQHLEFPFIFGAGTKLELK
ratio of APC MFI on MS4A6A+/HEK parental cells [1]: 2.7
ratio of APC MFI on MS4A6A+/HEK parental cells [2]: 0.2
